Experimental data taken from US9314499.

Target: tissue plasminogen activator (human) (UniProt P00750)
Assay: cell-based or functional assay

Chain of UniProt P00750 (P00750 36-562 limits assumed): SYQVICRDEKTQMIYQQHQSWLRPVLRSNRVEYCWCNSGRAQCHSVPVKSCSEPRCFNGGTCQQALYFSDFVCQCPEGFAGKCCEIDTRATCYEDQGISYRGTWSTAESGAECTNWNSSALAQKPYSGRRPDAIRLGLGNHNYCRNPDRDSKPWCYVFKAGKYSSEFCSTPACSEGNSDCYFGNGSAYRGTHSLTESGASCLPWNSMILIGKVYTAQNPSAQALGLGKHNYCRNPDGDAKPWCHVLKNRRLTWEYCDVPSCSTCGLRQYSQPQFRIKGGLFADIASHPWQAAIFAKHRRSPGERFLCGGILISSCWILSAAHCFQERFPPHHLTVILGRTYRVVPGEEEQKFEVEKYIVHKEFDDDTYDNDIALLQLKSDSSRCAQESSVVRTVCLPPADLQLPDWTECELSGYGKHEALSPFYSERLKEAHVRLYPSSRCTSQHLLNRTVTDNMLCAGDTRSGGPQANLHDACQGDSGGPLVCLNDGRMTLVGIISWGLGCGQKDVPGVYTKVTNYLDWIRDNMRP

## Histidine-tagged recombinant human Annexin A2 (from UniProt Q3ZCQ2 1-193)
  in vitro plasmin-generating capability of tPA (plasmin activity assay): 4 fold
